Molecular target: T1, HTkC (Thermococcus kodakarensis, UniProt Q5JDW7)
T1 sequence: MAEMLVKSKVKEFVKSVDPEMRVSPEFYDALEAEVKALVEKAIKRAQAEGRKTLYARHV
Assay: X-ray crystallography; 1.95 A; EMSA: 50 mM Tris-HCl pH 7.0, 75 mM KCl, 14.5% glycerol, room temperature 30 min, gel in 0.5x TBE at 4 C; TPM: 50 mM Tris pH 7.0, 75 mM KCl
Settings: protein: recombinant; chain copies: 4; blunt

B1: 30 bp-GC50 (dsDNA)
DNA 1: TTAAAGCCCGTTAAAGCCCGTTAAAGCCCG
DNA 2: CGGGCTTTAACGGGCTTTAACGGGCTTTAA
- binding result: binds

From doi:10.64898/2025.12.06.692711, “Archaeal histone HTkC hypercompacts DNA”
